# “And” between values parts separate entries of the source, which are not always exact repeats. Equal values may be shown once.
# Experiments:
# [1] = target: human ILT7 expressed on transfected cells (human, UniProt P59901 24-499); assay: cell-based or functional assay
# [2] = target: T1, cynomolgus ILT7 expressed on transfected cells (cynomolgus, UniProt P59901 24-499 (human entry)); assay: flow cytometry on CT-125 cells expressing cynomolgus ILT7
# T1 construct: also called cyno ILT7; CynoILT7 CT-125 cells
# T1 sequence (P59901 other isoform, or with tags, fused parts or gaps limits assumed): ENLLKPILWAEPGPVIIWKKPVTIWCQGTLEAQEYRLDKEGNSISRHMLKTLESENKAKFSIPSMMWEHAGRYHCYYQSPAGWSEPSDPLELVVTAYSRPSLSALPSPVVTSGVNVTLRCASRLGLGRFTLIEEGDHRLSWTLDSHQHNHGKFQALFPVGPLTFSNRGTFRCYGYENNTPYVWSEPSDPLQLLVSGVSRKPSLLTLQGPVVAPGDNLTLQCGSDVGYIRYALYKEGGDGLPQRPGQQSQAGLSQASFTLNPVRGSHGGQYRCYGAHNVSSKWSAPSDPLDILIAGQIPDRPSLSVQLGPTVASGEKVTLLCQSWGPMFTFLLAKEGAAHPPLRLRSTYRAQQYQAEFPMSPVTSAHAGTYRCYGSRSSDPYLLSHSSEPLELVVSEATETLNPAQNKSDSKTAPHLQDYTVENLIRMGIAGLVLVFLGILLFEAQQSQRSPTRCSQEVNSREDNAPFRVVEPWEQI
# Description: Binding of anti-ILT7 variants and isotype controls on human and cynomolgus ILT7 was assessed by flow cytometry analysis using CT-550 and cynoILT7 CT-125 cells respectively. CT-125 cells were used as control. Cells were resuspended in Blocking Buffer (PBS supplemented with 10% FBS) at a concentration of 5 million cells per mL and transferred into a round-bottom 96-well plates (BD Falcon™ Clear Microtest Plate, BD Biosciences) at 100 μL per well. Anti-ILT7 variants and control antibodies were added onto the cells for 30 min at 4° C. on a plate shaker. Cells were washed three times with PBS and resuspended in Blocking Buffer (100 μL/well). Human IgG binding on cell surface was detected using a secondary anti-human IgG antibody conjugated to DyLight 649 (1 in 1000 dilution). Cells were incubated in the dark for 30 min at 4° C. on a plate shaker. Cells were washed three times with PBS and surface fluorescence was acquired using LSRII Flow Cytometry System and FACSDiva Software (both from BD Biosciences).
# The resultant IgG1s were tested to confirm that the sequence changes incorporated into ILT70080 and ILT70083 and had not adversely impacted the binding of the parent antibody to cells expressing human ILT7 (CT-550 cells) or cynomolgus ILT7 (CT-125 cells). The variants were screened for binding by flow cytometry. […] However, five ILT70083 variants (ILT70083.4, ILT70083.9, ILT70083.3, ILT70083.6, and ILT70083.8) had improved binding capacity compared to the parental antibody for cynomolgus ILT7.
# [3] = target: T1, cynomolgus ILT7 expressed on …; assay: cell-based or functional assay
# human ILT7 expressed on transfected cells, sequence (P59901 24-499): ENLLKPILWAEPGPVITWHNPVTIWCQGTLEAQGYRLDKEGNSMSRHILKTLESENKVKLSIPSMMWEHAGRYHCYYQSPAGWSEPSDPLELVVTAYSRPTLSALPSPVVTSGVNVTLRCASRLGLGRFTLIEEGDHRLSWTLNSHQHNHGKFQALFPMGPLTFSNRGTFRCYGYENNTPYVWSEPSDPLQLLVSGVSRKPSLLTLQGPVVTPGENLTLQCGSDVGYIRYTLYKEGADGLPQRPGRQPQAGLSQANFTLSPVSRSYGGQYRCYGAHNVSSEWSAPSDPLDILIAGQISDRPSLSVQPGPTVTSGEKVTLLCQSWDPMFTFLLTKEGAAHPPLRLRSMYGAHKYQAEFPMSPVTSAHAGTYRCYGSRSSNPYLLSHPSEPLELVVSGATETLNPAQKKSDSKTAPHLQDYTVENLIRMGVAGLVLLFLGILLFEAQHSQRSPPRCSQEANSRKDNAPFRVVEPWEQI
Binder,ADCC potency EC50 [1],binding result [2],ADCC EC50 [1],ADCC EC50 [3]
"ILT70083.1 (antibody, V domains shown) VH: EVQLLESGGGLVQPGGSLRLSCAASGFTFSSYAMSWVRQAPGKGLEWVSAISGSGGSTYYADSVKGWFTISRDNSKNTLYLQMNSLRAEDTAVYYCARRTYYYDSDGHSDVFDIWGRGTLVTVSS VL: QSVVTQPPSVSAAPGQKVTISCSGSASNIGSNFVSWYQQLPGTAPKLLIYDNDKRDLGIPDRFSASISSTSATLGITGLQTGDEADYYCGTWDTSLTVGVFGGGTKLTVL",> 89 µM,,,
"ILT70083.3 (antibody, V domains shown, Engineered (germlined) ILT70083 IgG1 variant; also called ILT70083 variant) VH: EVQLLESGGGLVQPGGSLRLSCAASGFTFSSYAMSWVRQAPGKGLEWVSAISGSGGSTYYADSVKGWFTISRDNSKNTLYLQMNSLRAEDTAVYYCARRTYYYDSDGHSDVFDIWGRGTLVTVSS VL: QSVVTQPPSVSAAPGQKVTISCSGSASNIGSNFVSWYQQLPGTAPKLLIYDNDKRDLGIPDRFSGSKSGTSATLGITGLQTGDEADYYCGTWDTSLTVGVFGGGTKLTVL",> 89 µM,binds,,
"ILT70083.6 (antibody, V domains shown, Engineered (germlined) ILT70083 IgG1 variant; also called ILT70083 variant) VH: not shown VL: QSVVTQPPSVSAAPGQKVTISCSGSASNIGSNFVSWYQQLPGTAPKLLIYDNDKRDLGIPDRFSASISSTSATLGITGLQTGDEADYYCGTWDTSLTVGVFGGGTKLTVL",> 89 µM,binds,,
"ILT70083.8 (antibody, V domains shown, Engineered (germlined) ILT70083 IgG1 variant; also called ILT70083 variant) VH: not shown VL: QSVVTQPPSVSAAPGQKVTISCSGSASNIGSNFVSWYQQLPGTAPKLLIYDNDKRDLGIPDRFSGSKSGTSATLGITGLQTGDEADYYCGTWDTSLTVGVFGGGTKLTVL",> 89 µM,binds,,
"ILT70083.5 (antibody, V domains shown) VH: not shown VL: QSVVTQPPSVSAAPGQKVTISCSGSASNIGSNFVSWYQQLPGRAPKLLIYDNDKRDLGIPDRFSASISSTSAALAITGLQTEDEADYYCGTWDTSLTVGVFGGGTKLTVL",> 89 µM,,,
"ILT70083.2 (antibody, V domains shown) VH: EVQLLESGGGLVQPGGSLRLSCAASGFTFSSYAMSWVRQAPGKGLEWVSAISGSGGSTYYADSVKGWFTISRDNSKNTLYLQMNSLRAEDTAVYYCARRTYYYDSDGHSDVFDIWGRGTLVTVSS VL: QSVLTQPPSVSAAPGQKVTISCSGSASNIGSNFVSWYQQLPGTAPKLLIYDNDKRDLGIPDRFSASISSTSATLGITGLQTGDEADYYCGTWDTSLTVGVFGGGTKLTVL",> 89 µM,,,
"ILT70083.7 (antibody, V domains shown) VH: not shown VL: QSVLTQPPSVSAAPGQKVTISCSGSASNIGSNFVSWYQQLPGTAPKLLIYDNDKRDLGIPDRFSASISSTSATLGITGLQTGDEADYYCGTWDTSLTVGVFGGGTKLTVL",> 89 µM,,,
"ILT70080.2 (antibody, V domains shown, Engineered (germlined) ILT70080 variant tested as IgG1; also called ILT70080 variant) VH: QVQLVQSGAEVKKPGSSVKVSCKASGDSFRNYAVSWVRQAPGQGLEWMGAMMPSFGTREHSQQFQGRVTLSADESTSTAYMELSSLRSEDTAVYYCAGSRDYNAYHFWTGPPDFWGRGTLVTVSS VL: SYVLTQPPSVSVAPGKTARITCGGDSVGSTSVHWYQQKPGQAPVMVMFYNSDRPSGIPERFSGSISGNTATLTISRVEAGDEADYYCQVWDTSSDHPEFGGGTKLTVL",< 14.1 µM,binds,,
"afucosylated ILT70080.6 (antibody, V domains shown, afucosylated (no core fucose on the Fc N-glycan)) VH: QVQLVQSGAEVKKPGSSVKVSCKASGDSFRNYAVSWVRQAPGQGLEWMGAMMPSFGTREHSQQFQGRVTLTADESTSTAYMELSSLRSEDTAVYYCAGSRDYNAYHFWTGPPDFWGRGTLVTVSS VL: SYVLTQPPSVSVAPGKTARITCGGDSVGSTSVHWYQQKPGQAPVLVIYYNSDRPSGIPERFSGSNSGNTATLTISRVEAGDEADYYCQVWDTSSDHPEFGGGTKLTVL",,,1.12 µM,0.44 µM
"afucosylated IgG1 ILT70137 (antibody, V domains shown, afucosylated (made as in Example 7: lacks the α-1,6 fucose moiety on the N-glycan at Asn-297 of the heavy chain)) VH: QVQLQQSGAEVKKPGASVKVSCKASGYTFTSYGISWVRQAPGQGLEWMGWISAYNGNTNYAQKLQGRVTMTTDTSTSTAYMELRSLRSDDTAVYYCARNGLWGWDSDAFDIWGRGTLVTVSS VL: QSALTQPASVSGSPGQSITISCTGTSSDVGGYNYVSWYQQHPGKAPKLMIYDVSNRPSGVSNRFSGSKSGNTASLTISGLQAEDEADYYCSSYTSSSTVVFGGGTKVTVL",,,4.19 µM,1.89 µM

# The remaining lines, values ahead:
ADCC potency EC50 [1],binding result [2],ADCC EC50 [1],ADCC EC50 [3],Binder
> 89 µM,binds,,,"ILT70083.4 (antibody, V domains shown, Engineered (germlined) ILT70083 IgG1 variant; also called ILT70083 variant) VH: EVQLLESGGGLVQPGGSLRLSCAASGFTFSSYAMSWVRQAPGKGLEWVSAISGSGGSTYYADSVKGWFTISRDNSKNTLYLQMNSLRAEDTAVYYCARRTYYYDSDGHSDVFDIWGRGTLVTVSS VL: QSVLTQPPSVSAAPGQKVTISCSGSASNIGSNFVSWYQQLPGTAPKLLIYDNDKRDLGIPDRFSGSKSGTSATLGITGLQTGDEADYYCGTWDTSLTVGVFGGGTKLTVL"
> 89 µM,binds,,,"ILT70083.9 (antibody, V domains shown, Engineered (germlined) ILT70083 IgG1 variant; also called ILT70083 variant) VH: not shown VL: QSVLTQPPSVSAAPGQKVTISCSGSASNIGSNFVSWYQQLPGTAPKLLIYDNDKRDLGIPDRFSGSKSGTSATLGITGLQTGDEADYYCGTWDTSLTVGVFGGGTKLTVL"
< 14.1 µM and 8.6 µM,binds,,,"ILT70080.5 (antibody, V domains shown, Engineered (germlined) ILT70080 variant tested as IgG1; also called ILT70080 variant) VH: QVQLVQSGAEVKKPGSSVKVSCKASGDSFRNYAVSWVRQAPGQGLEWMGAMMPSFGTREHSQQFQGRVTLTADESTSTAYMELSSLRSEDTAVYYCAGSRDYNAYHFWTGPPDFWGRGTLVTVSS VL: SYVLTQPPSVSVAPGKTARITCGGDSVGSTSVHWYQQKPGQAPVMVMFYNSDRPSGIPERFSGSNSGNTATLTISRVEAGDEADYYCQVWDTSSDHPEFGGGTKLTVL"
< 14.1 µM and 7.8 µM,binds,,,"ILT70080.7 (antibody, V domains shown, Engineered (germlined) ILT70080 variant tested as IgG1; also called ILT70080 variant) VH: QVQLVQSGAEVKKPGSSVKVSCKASGDSFRNYAVSWVRQAPGQGLEWMGAMMPSFGTREHSQQFQGRVTLTADESTSTAYMELSSLRSEDTAVYYCAGSRDYNAYHFWTGPPDFWGRGTLVTVSS VL: SYVLTQPPSVSVAPGKTARITCGGDSVGSTSVHWYQQKPGQAPVLVMFYNSDRPSGIPERFSGSNSGNTATLTISRVEAGDEADYYCQVWDTSSDHPEFGGGTKLTVL"
< 14.1 µM and 11 µM,binds,,,"ILT70080.3 (antibody, V domains shown, Engineered (germlined) ILT70080 variant tested as IgG1; also called ILT70080 variant) VH: QVQLVQSGAEVKAPGTSVKVSCKASGDSFRNYAVSWVRQAPGQGLEWMGAMMPSFGTREHSQQFQGRVTLSADESTSTAYMELSSLRSEDTAVYYCAGSRDYNAYHFWTGPPDFWGRGTLVTVSS VL: SYVLTQPPSVSVAPGKTARITCGGDSVGSTSVHWYQQKPGQAPVMVMFYNSDRPSGIPERFSGSISGNTATLTISRVEAGDEADYYCQVWDTSSDHPEFGGGTKLTVL"
< 14.1 µM and 8 µM and 10 µM,binds,,,"ILT70080.1 (antibody, V domains shown, Engineered (germlined) ILT70080 variant tested as IgG1; also called ILT70080 variant) VH: QVQLVQSGAEVKKPGSSVKVSCKASGDSFRNYAVSWVRQAPGQGLEWMGAMMPSFGTREHSQQFQGRVTLTADESTSTAYMELSSLRSEDTAVYYCAGSRDYNAYHFWTGPPDFWGRGTLVTVSS VL: SYVLTQPPSVSVAPGKTARITCGGDSVGSTSVHWYQQKPGQAPVMVMFYNSDRPSGIPERFSGSISGNTATLTISRVEAGDEADYYCQVWDTSSDHPEFGGGTKLTVL"
< 14.1 µM and 6.9 µM,binds,,,"ILT70080.6 (antibody, V domains shown, Engineered (germlined) ILT70080 variant tested as IgG1; also called ILT70080 variant) VH: QVQLVQSGAEVKKPGSSVKVSCKASGDSFRNYAVSWVRQAPGQGLEWMGAMMPSFGTREHSQQFQGRVTLTADESTSTAYMELSSLRSEDTAVYYCAGSRDYNAYHFWTGPPDFWGRGTLVTVSS VL: SYVLTQPPSVSVAPGKTARITCGGDSVGSTSVHWYQQKPGQAPVLVIYYNSDRPSGIPERFSGSNSGNTATLTISRVEAGDEADYYCQVWDTSSDHPEFGGGTKLTVL"
< 14.1 µM and 11.9 µM,binds,,,"ILT70080.4 (antibody, V domains shown, Engineered (germlined) ILT70080 variant tested as IgG1; also called ILT70080 variant) VH: QVQLVQSGAEVKAPGTSVKVSCKASGDSFRNYAVSWVRQAPGQGLEWMGAMMPSFGTREHSQQFQGRVTLSADESTSTAYMELSSLRSEDTAVYYCAGSRDYNAYHFWTGPPDFWGRGTLVTVSS VL: SYELTQPPSVSVAPGKTAKISCGGDSVGSTSVHWYQQKPGQAPVMVMFYNSDRPSGIPERFSGSISGNTATLTISRVEAGDEADYYCQVWDTSSDHPEFGGGTKLTVL"

# Source: patent US20230250167A1 (published 2023)
